Molecular target: Control
Assay: SPR

Kd: 329 nM
B1: muFcgRIV (receptor)
chain: GLQKAVVNLDPKWVRVLEEDSVTLRCQGTFSPEDNSIKWFHNESLIPHQDANYVIQSARVKDSGMYRCQTALSTISDPVQLEVHMGWLLLQTTKWLFQEGDPIHLRCHSWQNRPVRKVTYLQNGKGKKYFHENSELLIPKATHNDSGSYFCRGLIGHNNKSSASFRISLGDPGSPSMFPPWHQ

Source: patent publication US20120148575A1 (published 2012)
